This is an account of results in paper PMC6356446.

The assay deals with c-Met (human (endogenous in HCC413)), P08581. Nature of the assay: flow cytometry on cells; HCC413 cells treated with EGF-FITC or HGF-FITC alone or with unlabeled LZ-8 for 15 min; fixed; relative mean fluorescence intensity. The following applies: remark: other sources report otherwise. In general terms: A flow cytometer gives signals particle by particle.
Sequence of c-Met (human (endogenous in HCC413)), P08581 (P08581 25-1390): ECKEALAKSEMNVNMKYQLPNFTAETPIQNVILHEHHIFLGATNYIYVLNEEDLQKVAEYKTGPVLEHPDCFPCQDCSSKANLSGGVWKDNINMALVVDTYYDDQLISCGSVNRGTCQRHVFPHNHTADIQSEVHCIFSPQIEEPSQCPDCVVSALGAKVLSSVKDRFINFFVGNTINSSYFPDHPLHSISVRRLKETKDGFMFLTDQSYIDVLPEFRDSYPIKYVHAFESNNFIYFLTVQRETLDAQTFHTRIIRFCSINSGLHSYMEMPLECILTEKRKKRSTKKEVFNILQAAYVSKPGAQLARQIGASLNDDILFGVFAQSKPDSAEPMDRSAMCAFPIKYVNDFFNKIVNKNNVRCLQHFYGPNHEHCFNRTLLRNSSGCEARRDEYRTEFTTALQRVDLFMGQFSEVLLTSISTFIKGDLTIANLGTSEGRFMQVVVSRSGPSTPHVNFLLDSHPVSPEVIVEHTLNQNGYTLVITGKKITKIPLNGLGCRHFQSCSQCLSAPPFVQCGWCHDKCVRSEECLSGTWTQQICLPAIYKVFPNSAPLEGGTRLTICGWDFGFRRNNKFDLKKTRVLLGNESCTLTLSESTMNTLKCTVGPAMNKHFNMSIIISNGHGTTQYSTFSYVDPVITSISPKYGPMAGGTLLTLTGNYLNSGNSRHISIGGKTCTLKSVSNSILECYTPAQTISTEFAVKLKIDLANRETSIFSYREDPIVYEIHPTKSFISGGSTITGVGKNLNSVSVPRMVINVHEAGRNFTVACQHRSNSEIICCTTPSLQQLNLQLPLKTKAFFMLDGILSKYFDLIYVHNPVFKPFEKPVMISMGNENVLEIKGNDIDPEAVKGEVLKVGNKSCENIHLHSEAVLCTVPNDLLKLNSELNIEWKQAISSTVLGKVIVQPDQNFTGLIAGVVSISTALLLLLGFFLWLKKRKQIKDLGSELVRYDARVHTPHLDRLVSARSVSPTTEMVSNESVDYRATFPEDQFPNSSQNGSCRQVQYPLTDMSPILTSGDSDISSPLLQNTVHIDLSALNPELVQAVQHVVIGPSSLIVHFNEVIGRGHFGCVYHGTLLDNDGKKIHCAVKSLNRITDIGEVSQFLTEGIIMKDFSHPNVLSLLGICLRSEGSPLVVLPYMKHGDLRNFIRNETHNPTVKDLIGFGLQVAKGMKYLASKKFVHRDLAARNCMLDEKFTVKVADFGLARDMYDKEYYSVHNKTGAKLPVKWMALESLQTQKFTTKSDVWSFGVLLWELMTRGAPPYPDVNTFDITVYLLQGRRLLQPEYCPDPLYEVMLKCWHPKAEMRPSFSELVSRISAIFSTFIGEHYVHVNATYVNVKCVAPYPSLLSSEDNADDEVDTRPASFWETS

B1: Ling-Zhi-8, P14945 1-111 (natural protein)
chain: MSDTALIFRLAWDVKKLSFDYTPNWGRGNPNNFIDTVTFPKVLTDKAYTYRVAVSGRNLGVKPSYAVESDGSQKVNFLEYNSGYGIADTNTIQVFVVDPDTNNDFIIAQWN
modifications: here or on the partner: N-glycans (sites not given)
In the case of B1, the percent suppression of HGF-FITC binding on the cell surface was 30%.
